Results from US20230348607A1 (EXELIXIS, published 2023).

Key:
human AMHR-II-ECD-Fc = biological target: T1, human AMHR-II-ECD-Fc (human, UniProt Q16671 18-149); experiment: ELISA, coated human AMHR-II-ECD-Fc, detection with HRP anti-human F(ab')2
T1 construct: Bought reagent (R&D Systems); Only its extracellular domain stood in the assay; also called extracellular domain of human AMHR-II receptor; not shown: Fc part of the bought fusion protein (R&D Systems)
Method: (§1) The binding capacity of the anti-AMHR-II 4A3 antibody was evaluated by ELISA. ELISA plates (96 wells, Maxisorp, Nunc) were coated overnight at +4° C. with 100 ng per well of human AMHR-II-ECD-Fc, rat AMHR-II-ECD-Fc or human ALK3-ECD-Fc (R&D Systems).
(§2) Coated plates were blocked with PBS-BSA 2% for 1 hour at 37° C. and washed three times with PBS-Tween20 0.05%. The anti-AMHR-II 4A3 antibody was serially diluted in PBST-BSA1% and incubated for 1 hour at 37° C. The bound anti-AMHR-II 4A3 was detected by adding HRP-conjugated F(ab′)2 goat anti-human F(ab′)2 fragment specific (Interchim) diluted at 1:10000 and incubated for one hour at 37° C. Revelation was done with TMB (Sigma) and the reaction was stopped by adding H₂SO₄ 1N (v:v). Absorbances were measured at 450 nm and binding data curves were analysed using GraphPad Prism 8 software.

rat AMHR-II-ECD-Fc = biological target: T2, rat AMHR-II-ECD-Fc (rat, UniProt Q62893 18-144); experiment: ELISA, 100 ng per well coated Fc fusion, serially diluted 4A3
T2 construct: extracellular domain; Bought reagent (R&D Systems); also called rat AMHR-II receptor; not shown: Fc part of the bought fusion protein (R&D Systems)
T2 sequence (looked up): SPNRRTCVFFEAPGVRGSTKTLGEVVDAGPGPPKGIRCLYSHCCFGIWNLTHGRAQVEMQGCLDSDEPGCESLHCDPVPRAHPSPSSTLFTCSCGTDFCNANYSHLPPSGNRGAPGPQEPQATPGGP
Method: as §1, §2

human ALK3-ECD-Fc = biological target: T3, human ALK3-ECD-Fc (human, UniProt P36894 24-152); experiment: as above
T3 construct: extracellular domain; Bought reagent (R&D Systems), used as negative control; also called human ALK3 receptor; negative control; not shown: Fc part of the bought fusion protein (R&D Systems)
T3 sequence (P36894 24-152): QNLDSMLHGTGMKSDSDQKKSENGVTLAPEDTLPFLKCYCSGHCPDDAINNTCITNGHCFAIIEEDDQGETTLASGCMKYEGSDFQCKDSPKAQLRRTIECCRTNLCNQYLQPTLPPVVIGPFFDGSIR
Method: as §1, §2

[1] = biological target: T4, human AMHR-II receptor expressed at the surface of the COV434-AMHR-II transfected cell line (human, UniProt Q16671 18-573); experiment: flow cytometry on COV434 AMHR-II transfected cells, 67 nM to 0.2 pM, one-site specific binding fit
T4 sequence: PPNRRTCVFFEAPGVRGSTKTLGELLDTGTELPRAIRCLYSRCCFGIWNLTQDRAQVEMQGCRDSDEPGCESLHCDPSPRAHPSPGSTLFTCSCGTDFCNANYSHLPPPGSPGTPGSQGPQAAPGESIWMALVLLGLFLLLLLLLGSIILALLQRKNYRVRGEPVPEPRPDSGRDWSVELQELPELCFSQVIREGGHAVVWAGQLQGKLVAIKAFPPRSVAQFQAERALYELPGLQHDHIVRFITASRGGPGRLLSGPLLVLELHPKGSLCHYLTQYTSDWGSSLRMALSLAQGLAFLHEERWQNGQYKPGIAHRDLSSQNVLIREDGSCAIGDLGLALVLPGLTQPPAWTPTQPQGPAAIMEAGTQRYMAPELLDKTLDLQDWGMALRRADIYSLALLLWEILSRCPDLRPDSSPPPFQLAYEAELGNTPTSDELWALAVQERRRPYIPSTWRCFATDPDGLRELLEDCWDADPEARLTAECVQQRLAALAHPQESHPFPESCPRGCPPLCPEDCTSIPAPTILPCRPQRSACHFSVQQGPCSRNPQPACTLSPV
Method: For Fluorescent-activated cell sorting (FACS) analysis, 3×10⁵ cells were incubated for 1 hour at 4° C. with 10 μg/ml of 4A3 antibody (FIG. 2A) or with a range of 4A3 concentrations (from 67 nM to 0.2 pM, FIG. 2B). After washes, Phycoerythrin-conjugated anti-human IgG antibody (1:200, Interchim) was added for 1 hour at 4° C. FACS analysis of the resuspended cells was done on a BD Accuri™ C6 flow cytometer (BD Bioscience). Binding affinity were determined using GraphPad Prism 8 with “one-site specific binding” fit equation.

B1: anti-AMHR-II 4A3 antibody (antibody, human IgG1, lambda, V domains shown)
VH: EVQLVESGGSLVKPGGSLRLSCAASGFTFSNNAMNWVRQAPGKGLEWISYISGSSRYISYADFVKGRFTISRDNAKNSLYLQMNSLRAEDTAVYYCVRSSDDYFGGGMDVWGRGTLVTVSS
VL: QSVLTQPASVSGSPGQSITISCAGTSSDVGGDNDVSWYQQHPGKAPKLMIYYDSYRPSGVSNRFSGSKSGNTASLTISGLQAEDEADYYCSSSTYYSTRVFGGGTKLTVLG
notes: The tie is therefore indirect; 4A3 was detected with anti-human F(ab')2 and anti-human IgG secondary reagents; also called antibody 4A3; 4A3 antagonist antibody
For B1, the EC50 (human AMHR-II-ECD-Fc) was 6 nM, the binding result (rat AMHR-II-ECD-Fc) was “no binding” and the binding result (human ALK3-ECD-Fc) was “no binding”. It also gave a Kd [1] of 2.1 nM.
